B1: Tyrosine-protein phosphatase non-receptor type 1 (Homo sapiens), P18031 (parent)
chain: MEMEKEFEQIDKSGSWAAIYQDIRHEASDFPCRVAKLPKNKNRNRYRDVSPFDHSRIKLHQEDNDYINASLIKMEEAQRSYILTQGPLPNTCGHFWEMVWEQKSRGVVMLNRVMEKGSLKCAQYWPQKEEKEMIFEDTNLKLTLISEDIKSYYTVRQLELENLTTQETREILHFHYTTWPDFGVPESPASFLNFLFKVRESGSLSPEHGPVVVHCSAGIGRSGTFCLADTCLLLMDKRKDPSSVDIKKVLLEMRKFRMGLIQTADQLRFSYLAVIEGAKFIMGDSSVQDQWKELSHEDLEPPPEHIPPPPRPPKRILEPHNGKCREFFPNHQWVKEETQEDKDCPIKEEKGSPLNAAPYGIESMSQDTEVRSRVVGGSLRGAQAASPAKGEPSLPEKDEDHALSYWKPFLVNMCVATVLTAGAYLCYRFLFNSNT
B2: Tyrosine-protein phosphatase non-receptor type 1 (Homo sapiens), P18031 (parent)
chain: B1 chain
partner: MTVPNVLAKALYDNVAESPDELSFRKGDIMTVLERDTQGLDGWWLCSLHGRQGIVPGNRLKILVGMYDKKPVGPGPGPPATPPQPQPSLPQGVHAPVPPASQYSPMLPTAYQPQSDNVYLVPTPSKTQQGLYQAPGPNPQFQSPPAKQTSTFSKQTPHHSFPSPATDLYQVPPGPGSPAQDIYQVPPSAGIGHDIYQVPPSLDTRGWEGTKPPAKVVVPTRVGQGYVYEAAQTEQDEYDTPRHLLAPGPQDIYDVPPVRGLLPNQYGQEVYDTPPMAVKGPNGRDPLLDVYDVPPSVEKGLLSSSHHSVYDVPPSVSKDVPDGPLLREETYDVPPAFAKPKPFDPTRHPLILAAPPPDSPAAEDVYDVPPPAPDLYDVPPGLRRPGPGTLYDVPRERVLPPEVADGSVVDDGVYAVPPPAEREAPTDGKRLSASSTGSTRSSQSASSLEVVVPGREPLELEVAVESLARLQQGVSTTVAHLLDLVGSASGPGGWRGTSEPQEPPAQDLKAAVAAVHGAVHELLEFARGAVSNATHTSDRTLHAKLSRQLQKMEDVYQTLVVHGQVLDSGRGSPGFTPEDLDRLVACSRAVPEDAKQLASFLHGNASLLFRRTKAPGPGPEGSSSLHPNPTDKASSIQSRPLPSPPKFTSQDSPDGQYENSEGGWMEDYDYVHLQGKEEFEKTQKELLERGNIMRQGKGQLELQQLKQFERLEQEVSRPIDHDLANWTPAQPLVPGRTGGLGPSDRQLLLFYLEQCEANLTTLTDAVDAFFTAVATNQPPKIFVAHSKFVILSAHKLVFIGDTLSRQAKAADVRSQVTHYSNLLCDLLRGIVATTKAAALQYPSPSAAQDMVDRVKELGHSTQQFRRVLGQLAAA
B3: Tyrosine-protein phosphatase non-receptor type 1 (Homo sapiens), P18031 (parent)
chain: B1 chain
partner: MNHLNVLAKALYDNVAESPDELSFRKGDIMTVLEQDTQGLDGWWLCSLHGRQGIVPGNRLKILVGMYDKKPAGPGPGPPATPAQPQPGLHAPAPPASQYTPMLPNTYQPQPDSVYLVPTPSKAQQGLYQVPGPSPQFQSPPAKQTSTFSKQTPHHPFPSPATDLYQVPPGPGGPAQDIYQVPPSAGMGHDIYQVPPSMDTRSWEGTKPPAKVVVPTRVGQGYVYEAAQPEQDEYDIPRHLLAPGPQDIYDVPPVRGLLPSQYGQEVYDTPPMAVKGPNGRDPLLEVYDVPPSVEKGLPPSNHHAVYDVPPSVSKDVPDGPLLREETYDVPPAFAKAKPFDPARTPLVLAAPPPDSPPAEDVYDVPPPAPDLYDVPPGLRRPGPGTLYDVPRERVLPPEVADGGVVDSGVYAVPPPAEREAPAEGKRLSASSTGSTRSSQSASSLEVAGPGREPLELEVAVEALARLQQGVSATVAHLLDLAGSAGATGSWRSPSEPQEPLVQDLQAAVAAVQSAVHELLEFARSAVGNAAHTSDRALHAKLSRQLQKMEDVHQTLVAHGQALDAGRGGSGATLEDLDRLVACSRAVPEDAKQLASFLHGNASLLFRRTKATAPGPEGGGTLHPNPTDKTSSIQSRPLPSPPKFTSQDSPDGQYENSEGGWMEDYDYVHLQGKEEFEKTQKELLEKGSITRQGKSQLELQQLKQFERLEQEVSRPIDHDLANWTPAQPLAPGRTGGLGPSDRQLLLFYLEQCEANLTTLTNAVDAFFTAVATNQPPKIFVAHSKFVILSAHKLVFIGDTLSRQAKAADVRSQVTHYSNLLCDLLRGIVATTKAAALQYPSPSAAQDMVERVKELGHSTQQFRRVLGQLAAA

Variants of: B1
Details: with paxi_mouse Pxn

Row | Variant | effect of a mutation on the interaction
1 | P309A | disrupting interaction
2 | P310A | disrupting interaction

Variants of: B1
Details: with fak1_mouse Ptk2, P34152
Chain of fak1_mouse Ptk2, P34152 (P34152 whole entry): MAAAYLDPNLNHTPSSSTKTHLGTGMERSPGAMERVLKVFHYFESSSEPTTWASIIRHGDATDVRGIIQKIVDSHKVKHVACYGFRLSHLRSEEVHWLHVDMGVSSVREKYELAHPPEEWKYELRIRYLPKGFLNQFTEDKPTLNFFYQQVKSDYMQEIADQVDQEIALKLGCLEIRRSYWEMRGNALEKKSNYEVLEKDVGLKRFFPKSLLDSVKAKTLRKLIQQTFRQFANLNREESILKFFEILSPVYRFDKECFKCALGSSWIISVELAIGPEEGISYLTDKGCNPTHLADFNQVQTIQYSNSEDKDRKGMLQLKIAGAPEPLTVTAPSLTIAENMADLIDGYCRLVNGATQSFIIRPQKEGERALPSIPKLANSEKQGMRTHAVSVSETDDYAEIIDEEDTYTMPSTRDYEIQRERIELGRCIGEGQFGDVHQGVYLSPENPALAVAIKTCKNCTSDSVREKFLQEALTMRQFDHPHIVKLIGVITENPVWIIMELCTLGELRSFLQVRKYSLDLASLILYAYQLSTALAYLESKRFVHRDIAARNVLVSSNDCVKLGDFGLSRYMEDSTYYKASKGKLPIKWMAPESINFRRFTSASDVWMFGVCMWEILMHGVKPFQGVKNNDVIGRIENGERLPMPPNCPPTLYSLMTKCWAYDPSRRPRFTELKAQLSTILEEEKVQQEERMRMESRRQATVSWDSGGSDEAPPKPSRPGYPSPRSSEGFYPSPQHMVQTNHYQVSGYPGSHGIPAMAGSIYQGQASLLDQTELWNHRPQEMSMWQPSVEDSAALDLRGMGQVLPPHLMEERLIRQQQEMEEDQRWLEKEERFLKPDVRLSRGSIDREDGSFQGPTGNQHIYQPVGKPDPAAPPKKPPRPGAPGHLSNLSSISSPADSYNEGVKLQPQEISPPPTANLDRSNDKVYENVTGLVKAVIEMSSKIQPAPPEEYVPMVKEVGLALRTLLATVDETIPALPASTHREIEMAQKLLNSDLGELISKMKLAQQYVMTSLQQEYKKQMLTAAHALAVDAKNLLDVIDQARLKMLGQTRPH

Row | Variant | effect of a mutation on the interaction
3 | P309A | disrupting interaction
4 | P310A | disrupting interaction

Variants of: B1
Details: with paxi_mouse Pxn
Remark: another data set of the same source

Row | Variant | effect of a mutation on the interaction
5 | C215S | disrupting interaction

Variants of: B1
Details: with fak1_mouse Ptk2, P34152
Remark: another data set of the same source

Row | Variant | effect of a mutation on the interaction
6 | C215S | disrupting interaction

Variants of: B2
Details: with bcar1_mouse Bcar1, Q61140

Row | Variant | effect of a mutation on the interaction
7 | P310A | disrupting interaction
8 | P309A | disrupting interaction

Variants of: B2
Details: with bcar1_mouse Bcar1, Q61140
Remark: another data set of the same source

Row | Variant | effect of a mutation on the interaction
9 | C215S | disrupting interaction

Variants of: B3
Details: with bcar1_human BCAR1, P56945

Row | Variant | effect of a mutation on the interaction
10 | P310A | disrupting interaction
11 | P309A | disrupting interaction

From IntAct's records for PubMed 9418872
